{"source": "paper PMC10289200", "about": "“Detection of Arc/Arg3.1 oligomers in rat brain: constitutive and synaptic activity-evoked dimer expression in vivo” (Frontiers in Molecular Neuroscience, 2023)", "key": {"[1]": {"target": "the molecule itself", "test": "cross-linking; in situ, 0.2 mM DSG, 10 min, 4 °C, in PBS pH 7.4, harvested SH-SY5Y cells (untreated or carbachol) or cortical neuronal cultures (untreated or BDNF); quenched with 50 mM Tris-HCl; SDS-PAGE with DTT and immunoblot"}, "[2]": {"target": "the molecule itself", "test": "cross-linking; thiol-cleavable DSP on rat CA tissue; non-reducing SDS-PAGE and immunoblot; crosslinks reversed by DTT"}, "[3]": {"target": "T1, DJ-1, endogenous in SH-SY5Y cells (human (endogenous in SH-SY5Y)), Q99497", "T1 chain": "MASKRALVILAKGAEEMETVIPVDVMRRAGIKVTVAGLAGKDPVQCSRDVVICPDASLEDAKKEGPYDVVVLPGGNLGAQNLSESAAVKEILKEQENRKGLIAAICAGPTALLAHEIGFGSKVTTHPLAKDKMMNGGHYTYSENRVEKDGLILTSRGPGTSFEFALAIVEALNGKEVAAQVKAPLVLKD", "test": "cross-linking; in situ, 0.2 mM DSG, 10 min, 4 °C, in PBS pH 7.4, harvested SH-SY5Y cells (untreated or carbachol) or cortical neuronal cultures (untreated or BDNF); quenched with 50 mM Tris-HCl; SDS-PAGE with DTT and immunoblot", "settings": "remark: other sources report otherwise"}, "[4]": {"target": "the molecule itself", "test": "cross-linking; in situ/ex vivo, 0.5 mM DSG, 30 min, 37 °C, PBS pH 7.4, ~0.5 mm slices of rat DG, CA or cortex (naive, HFS-LTP or BDNF-LTP); lysis in 1% Triton X-100; SDS-PAGE with DTT and immunoblot"}, "[5]": {"target": "the molecule itself", "test": "cross-linking; DSG-crosslinked pooled rat DG (1, 2, 4 h post-HFS), then Arc immunoprecipitation (rabbit anti-Arc antibody or ALFA-H11 nanobody) and Arc immunoblot"}, "[6]": {"target": "the molecule itself", "test": "cross-linking + affinity purification with mass spectrometry; in situ, 0.1 mM DSG, 10 min, 4 °C, mTq2-Arc transfected HEK293FT cells; immunoblot, Arc immunoprecipitation and LC-MS/MS of gel-excised bands (~75, 150, 250, >250 kDa)"}, "[7]": {"target": "the molecule itself", "test": "SDS-PAGE and immunoblot without cross-linker; non-crosslinked (DMSO only) cells or tissue, boiled in Laemmli buffer with DTT; species that resist SDS"}}, "data": [{"binder": "Activity-regulated cytoskeleton-associated protein (Arc), endogenous in human SH-SY5Y neuroblastoma cells (natural protein, human (endogenous in SH-SY5Y), UniProt Q7LC44 1-396, looked up, Arc (Arg3.1), endogenous in human SH-SY5Y neuroblastoma cells; monomer at ~50 kDa on SDS-PAGE; also called Arg3.1; endogenous Arc; source: endogenous, SH-SY5Y cells (induced with 100 uM carbachol), in cells / lysate) MELDHRTSGGLHAYPGPRGGQVAKPNVILQIGKCRAEMLEHVRRTHRHLLAEVSKQVERELKGLHRSVGKLESNLDGYVPTSDSQRWKKSIKACLCRCQETIANLERWVKREMHVWREVFYRLERWADRLESTGGKYPVGSESARHTVSVGVGGPESYCHEADGYDYTVSPYAITPPPAAGELPGQEPAEAQQYQPWVPGEDGQPSPGVDTQIFEDPREFLSHLEEYLRQVGGSEEYWLSQIQNHMNGPAKKWWEFKQGSVKNWVEFKKEFLQYSEGTLSREAIQRELDLPQKQGEPLDQFLWRKRDLYQTLYVDADEEEIIQYVVGTLQPKLKRFLRHPLPKTLEQLIQRGMEVQDDLEQAAEPAGPHLPVEDEAETLTPAPNSESVASDRTQPE", "values": [{"measurement": "stoichiometry N", "setting": "[1]", "result": 2}]}, {"binder": "DJ-1, endogenous in rat brain tissue (natural protein, rat (endogenous in rat brain tissue), UniProt O88767 1-189, looked up, DJ-1, endogenous in rat DG, CA and cortical tissue; also called DJ-I; source: endogenous, rat brain tissue (DG, CA, cortex), in tissue / lysate) MASKRALVILAKGAEEMETVIPVDIMRRAGIKVTVAGLAGKDPVQCSRDVVICPDTSLEEAKTQGPYDVVVLPGGNLGAQNLSESALVKEILKEQENRKGLIAAICAGPTALLAHEVGFGCKVTSHPLAKDKMMNGSHYSYSESRVEKDGLILTSRGPGTSFEFALAIVEALSGKDMANQVKAPLVLKD", "values": [{"measurement": "stoichiometry N", "setting": "[2]", "result": 2}]}, {"binder": "DJ-1, endogenous in SH-SY5Y cells, Q99497 1-189 (natural protein) MASKRALVILAKGAEEMETVIPVDVMRRAGIKVTVAGLAGKDPVQCSRDVVICPDASLEDAKKEGPYDVVVLPGGNLGAQNLSESAAVKEILKEQENRKGLIAAICAGPTALLAHEIGFGSKVTTHPLAKDKMMNGGHYTYSENRVEKDGLILTSRGPGTSFEFALAIVEALNGKEVAAQVKAPLVLKD", "values": [{"measurement": "stoichiometry N", "setting": "[3]", "result": 2}]}, {"binder": "Arc, endogenous in rat brain tissue (dentate gyrus, hippocampal CA, cortex) (natural protein, rat (endogenous in rat brain tissue), UniProt Q63053 1-396, looked up, Arc (Arg3.1), endogenous in adult Sprague-Dawley rat brain tissue; monomer at ~55 kDa on SDS-PAGE; also called Arg3.1; endogenous Arc; source: endogenous, rat brain tissue (DG, CA, cortex), in tissue / lysate) MELDHMTTGGLHAYPAPRGGPAAKPNVILQIGKCRAEMLEHVRRTHRHLLTEVSKQVERELKGLHRSVGKLENNLDGYVPTGDSQRWKKSIKACLCRCQETIANLERWVKREMHVWREVFYRLERWADRLESMGGKYPVGSEPARHTVSVGVGGPEPYCQEADGYDYTVSPYAITPPPAAGELPEQESVGAQQYQSWVPGEDGQPSPGVDTQIFEDPREFLSHLEEYLRQVGGSEEYWLSQIQNHMNGPAKKWWEFKQGSVKNWVEFKKEFLQYSEGTLSREAIQRELDLPQKQGEPLDQFLWRKRDLYQTLYVDAEEEEIIQYVVGTLQPKFKRFLRHPLPKTLEQLIQRGMEVQDGLEQAAEPSVTPLPTEDETEALTPALTSESVASDRTQPE", "values": [{"measurement": "ratio of dimer:monomer in the DSG lane (BDNF-LTP, 2 h)", "setting": "[4]", "result": 0.56}, {"measurement": "ratio of dimer:monomer in the DSG lane (HFS-LTP, 2 h)", "setting": "[4]", "result": 0.4}, {"measurement": "stoichiometry N", "setting": "[5]", "result": 2}]}, {"binder": "Arc N-terminally fused to monomeric Turquoise 2 (mTq2-Arc) (natural protein, UniProt Q63053 1-396, looked up, Arc; fusion monomer at ~75 kDa on SDS-PAGE; The crosslinking in HEK293FT cells follows Eriksen et al. (2021); the construct may be described there; also called ectopic Arc; source: HEK293FT, transfected (CMV promoter), in cells / lysate; not shown: monomeric Turquoise 2 (mTq2), N-terminal, kept) MELDHMTTGGLHAYPAPRGGPAAKPNVILQIGKCRAEMLEHVRRTHRHLLTEVSKQVERELKGLHRSVGKLENNLDGYVPTGDSQRWKKSIKACLCRCQETIANLERWVKREMHVWREVFYRLERWADRLESMGGKYPVGSEPARHTVSVGVGGPEPYCQEADGYDYTVSPYAITPPPAAGELPEQESVGAQQYQSWVPGEDGQPSPGVDTQIFEDPREFLSHLEEYLRQVGGSEEYWLSQIQNHMNGPAKKWWEFKQGSVKNWVEFKKEFLQYSEGTLSREAIQRELDLPQKQGEPLDQFLWRKRDLYQTLYVDAEEEEIIQYVVGTLQPKFKRFLRHPLPKTLEQLIQRGMEVQDGLEQAAEPSVTPLPTEDETEALTPALTSESVASDRTQPE", "values": [{"measurement": "stoichiometry N", "setting": "[6]", "result": 2}]}, {"binder": "rArc-StrepII-HA, stably expressed in SH-SY5Y cells (natural protein, UniProt Q63053 1-396, looked up, Arc printed as rArc in the cassette CMV::rArc-StrepII-HA; the species is not spelt out; monomer at ~60 kDa on SDS-PAGE; also called tagged-Arc; exogenous Arc) MELDHMTTGGLHAYPAPRGGPAAKPNVILQIGKCRAEMLEHVRRTHRHLLTEVSKQVERELKGLHRSVGKLENNLDGYVPTGDSQRWKKSIKACLCRCQETIANLERWVKREMHVWREVFYRLERWADRLESMGGKYPVGSEPARHTVSVGVGGPEPYCQEADGYDYTVSPYAITPPPAAGELPEQESVGAQQYQSWVPGEDGQPSPGVDTQIFEDPREFLSHLEEYLRQVGGSEEYWLSQIQNHMNGPAKKWWEFKQGSVKNWVEFKKEFLQYSEGTLSREAIQRELDLPQKQGEPLDQFLWRKRDLYQTLYVDAEEEEIIQYVVGTLQPKFKRFLRHPLPKTLEQLIQRGMEVQDGLEQAAEPSVTPLPTEDETEALTPALTSESVASDRTQPE", "values": [{"measurement": "stoichiometry N", "setting": "[7]", "result": 2}]}, {"binder": "Arc, endogenous in primary cortical neuronal cultures (natural protein, UniProt Q63053 1-396, looked up, Arc (Arg3.1), endogenous in primary cortical neurons; also called Arg3.1; source: endogenous, primary cortical neuronal cultures (BDNF 50 ng/mL, 2 h), in cells / lysate) MELDHMTTGGLHAYPAPRGGPAAKPNVILQIGKCRAEMLEHVRRTHRHLLTEVSKQVERELKGLHRSVGKLENNLDGYVPTGDSQRWKKSIKACLCRCQETIANLERWVKREMHVWREVFYRLERWADRLESMGGKYPVGSEPARHTVSVGVGGPEPYCQEADGYDYTVSPYAITPPPAAGELPEQESVGAQQYQSWVPGEDGQPSPGVDTQIFEDPREFLSHLEEYLRQVGGSEEYWLSQIQNHMNGPAKKWWEFKQGSVKNWVEFKKEFLQYSEGTLSREAIQRELDLPQKQGEPLDQFLWRKRDLYQTLYVDAEEEEIIQYVVGTLQPKFKRFLRHPLPKTLEQLIQRGMEVQDGLEQAAEPSVTPLPTEDETEALTPALTSESVASDRTQPE", "values": [{"measurement": "stoichiometry N", "setting": "[1]", "result": 2}]}]}
